# T1: variant nuclease SEQ ID NO: 53 (P14R, D32R, I61R, E311R, T338G, E736G)
# T1 chain: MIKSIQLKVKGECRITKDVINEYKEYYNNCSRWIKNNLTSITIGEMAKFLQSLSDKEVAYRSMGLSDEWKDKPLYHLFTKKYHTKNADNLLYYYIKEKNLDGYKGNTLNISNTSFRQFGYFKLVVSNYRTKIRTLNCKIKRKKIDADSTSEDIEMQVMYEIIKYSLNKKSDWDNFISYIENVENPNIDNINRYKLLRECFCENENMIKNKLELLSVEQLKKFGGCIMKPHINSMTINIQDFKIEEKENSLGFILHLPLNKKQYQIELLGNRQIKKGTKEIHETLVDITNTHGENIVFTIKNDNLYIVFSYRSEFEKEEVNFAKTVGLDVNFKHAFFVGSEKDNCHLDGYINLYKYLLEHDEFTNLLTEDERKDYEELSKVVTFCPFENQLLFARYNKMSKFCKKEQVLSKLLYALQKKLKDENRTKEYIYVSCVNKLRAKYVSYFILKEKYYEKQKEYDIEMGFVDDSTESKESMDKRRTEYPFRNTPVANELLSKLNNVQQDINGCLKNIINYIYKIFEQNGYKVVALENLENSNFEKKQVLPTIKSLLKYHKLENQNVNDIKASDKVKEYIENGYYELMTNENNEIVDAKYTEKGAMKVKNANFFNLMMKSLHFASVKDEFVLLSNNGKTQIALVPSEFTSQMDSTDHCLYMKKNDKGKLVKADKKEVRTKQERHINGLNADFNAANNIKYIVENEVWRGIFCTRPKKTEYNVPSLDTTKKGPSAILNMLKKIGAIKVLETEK
# T2: variant nuclease T338G combination (P14R, D32R, I61R, E311R, T338G)
# T2 chain: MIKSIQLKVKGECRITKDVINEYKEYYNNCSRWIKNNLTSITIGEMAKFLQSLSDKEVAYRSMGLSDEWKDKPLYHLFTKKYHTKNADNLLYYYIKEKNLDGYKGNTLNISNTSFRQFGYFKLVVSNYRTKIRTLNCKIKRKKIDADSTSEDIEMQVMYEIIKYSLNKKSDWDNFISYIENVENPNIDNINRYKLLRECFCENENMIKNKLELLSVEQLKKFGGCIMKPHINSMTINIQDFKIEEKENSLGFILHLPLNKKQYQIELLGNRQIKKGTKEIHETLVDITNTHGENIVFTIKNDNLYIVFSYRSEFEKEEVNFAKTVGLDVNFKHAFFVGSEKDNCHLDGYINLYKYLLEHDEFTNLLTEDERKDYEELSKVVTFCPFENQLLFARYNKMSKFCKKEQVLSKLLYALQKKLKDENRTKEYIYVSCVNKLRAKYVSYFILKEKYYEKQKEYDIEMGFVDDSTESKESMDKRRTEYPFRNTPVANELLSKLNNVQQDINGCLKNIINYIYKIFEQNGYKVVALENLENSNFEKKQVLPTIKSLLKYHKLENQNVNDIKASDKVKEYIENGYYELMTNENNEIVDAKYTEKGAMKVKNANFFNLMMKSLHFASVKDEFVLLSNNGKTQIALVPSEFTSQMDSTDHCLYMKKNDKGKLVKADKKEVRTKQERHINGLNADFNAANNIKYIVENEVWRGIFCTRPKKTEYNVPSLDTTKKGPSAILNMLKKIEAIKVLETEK
# T3: variant nuclease 7 substitutions D590G/E154G/E736G (P14R, D32R, I61R, E311R, D590G, E154G, E736G)
# T3 chain: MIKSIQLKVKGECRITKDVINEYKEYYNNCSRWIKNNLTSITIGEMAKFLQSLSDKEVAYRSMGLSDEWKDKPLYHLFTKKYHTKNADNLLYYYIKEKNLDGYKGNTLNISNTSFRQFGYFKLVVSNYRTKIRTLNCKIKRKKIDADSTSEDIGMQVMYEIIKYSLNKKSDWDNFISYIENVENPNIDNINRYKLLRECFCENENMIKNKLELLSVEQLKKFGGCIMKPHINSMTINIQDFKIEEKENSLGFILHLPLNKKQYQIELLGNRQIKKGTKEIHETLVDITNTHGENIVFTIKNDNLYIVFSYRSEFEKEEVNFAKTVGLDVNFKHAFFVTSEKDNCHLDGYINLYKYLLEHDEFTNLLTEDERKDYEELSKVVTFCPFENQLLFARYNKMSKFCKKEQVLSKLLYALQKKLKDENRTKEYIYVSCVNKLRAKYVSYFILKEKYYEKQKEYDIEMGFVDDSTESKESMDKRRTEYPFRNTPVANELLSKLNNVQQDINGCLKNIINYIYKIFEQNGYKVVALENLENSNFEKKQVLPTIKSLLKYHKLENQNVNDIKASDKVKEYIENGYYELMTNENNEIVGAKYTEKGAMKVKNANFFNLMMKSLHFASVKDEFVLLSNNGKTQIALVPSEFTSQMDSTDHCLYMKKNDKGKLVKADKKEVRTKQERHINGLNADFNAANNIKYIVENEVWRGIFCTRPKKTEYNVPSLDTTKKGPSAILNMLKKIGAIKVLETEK
# Tests used:
# Details in all cases: tags: pcDNA3.1 expression
# [1] = biological target: T1, variant nuclease SEQ ID NO: 53 (P14R, …); test: cell_activity; % indels; HEK293T; PAM 5'-TTTA-3'
# [2] = biological target: T2, variant nuclease T338G combination; test: cell_activity; PAM 5'-ATTG-3'
# [3] = biological target: T3, variant nuclease 7 substitutions …; test: cell_activity; PAM 5'-ATTG-3'
# [4] = biological target: T1, variant nuclease SEQ ID NO: 53 (P14R, …); test: cell_activity; % indels; HEK293T; PAM 5'-ATTG-3'
Binder,indel editing activity [1],indel editing activity [2],indel editing activity [3],indel frequency [4]
VEGFA crRNA ; VEGFA target (ssRNA ; dsDNA) RNA: CUUGUUGUAUAUGUCCUUUUAUAGGUAUUAAACAACUCCAGACCACCAAUGGGCAC DNA 1: TCCAGACCACCAATGGGCAC DNA 2: GTGCCCATTGGTGGTCTGGA,3.04 fold of WT,,,
EMX1 crRNA ; EMX1 target (ssRNA ; dsDNA) RNA: CUUGUUGUAUAUGUCCUUUUAUAGGUAUUAAACAACCCGCCGCUUCCUGAGCCAUC DNA 1: CCGCCGCTTCCTGAGCCATC DNA 2: GATGGCTCAGGAAGCGGCGG,,7.58 fold of WT,10.7 fold of WT,11.9 fold of WT

# Source: patent US20240035010, “COMPOSITIONS COMPRISING A VARIANT POLYPEPTIDE AND USES THEREOF” (Arbor Biotechnologies, Inc., published 2024)
